Literature values as cited in PMC10814857, “Functional Classification and Interaction Selectivity Landscape of the Human SH3 Domain Superfamily” (Cells, 2024).

Legend:
PACSIN1 SH3 domain = biological target: PACSIN1 SH3 domain; set-up: method as in ref [60] (a number printed in a supplementary file, which may have a reference list of its own: not looked up in the article's list); conditions: PACSIN1, ITC, Table S4; ref [60]
[1] = biological target: SH3GL2 (Endophilin-A1) SH3 domain; conditions: ITC, Table S4, ref [60]
Protocol: page 6: […] […] […] PAK2 […] PXXXPR PXXXPR 1.05 ITC [34] TRSVI ITSN1-2 Synthetic […] Exceptional [W/F][R/W]xSx[A/ 53 ITC [29] peptide G][F/Y][L/V]xGP[ W/L] NCK1-2 N-WASP GP[…] … 147 HSQC [64] VA[…] 199 PLCG1 SOS1 AAPV[…] … 0.20mM SPR [75] AADS[…] 0.40mM AAES[…] 0.70mM AAIA[…] 0.28mM BAIAP2L1 EspFUR45 IPP[…] … 0.5 nM ITC [76] (IRTKS) 9 SORBS2- Synthetic […] Exceptional XRXGXAYLXYVX 38 ITC [29] 1 peptide Synthetic RL[…](L/P) ...

[2] = biological target: bPIX (ARHGEF7) SH3 domain; set-up: method as in 3 sources, one per row (each row's own in cited_ref): ref [33] (a number printed in a supplementary file, which may have a reference list of its own: not looked up in the article's list) ||| ref [60] (a number printed in a supplementary file, which may have a reference list of its own: not looked up in the article's list) ||| ref [34] (a number printed in a supplementary file, which may have a reference list of its own: not looked up in the article's list); conditions: ITC, Table S4, ref [60]

B1: PEDAGAGENRRVSGNNSPSLSNGGFKPSRPPRPSRPPPPTPRRPASVNGSPSATSESDGSSTG (peptide)
chain: PEDAGAGENRRVSGNNSPSLSNGGFKPSRPPRPSRPPPPTPRRPASVNGSPSATSESDGSSTG
notes: published Itch proline-rich peptide
PACSIN1 SH3 domain
  Kd: 4330 nM
[1]
  Kd: 457 nM
[2]
  Kd: 1440 nM
